Some results are limits rather than exact numbers.

The values below come from the Immune Epitope Database (IEDB).

The target of test [1] is HLA-A*01:01. Kind of test: IEDB peptide-MHC binding, purified MHC/direct/fluorescence; filed as Kd, often an IC50 or EC50 that approximates it; ≥ and ≤ were set here for values at or beyond the usual limits of such assays.
The target in the next test is HLA-A*02:01. The test is described as above.
The target in a further test is HLA-A*03:01. Described as above.
Test [2] concerns the target HLA-A*11:01. Described as above.
The target of a further test is HLA-A*26:03. The description is as above.
The next test addresses HLA-A*31:01. Described as above.
Another test concerns the target HLA-A*68:02. The test is described as above.
The next test has as its target HLA-A*69:01. The test is described as above.
The target in another test is HLA-B*08:03. Described as above. The note with it: source organism: Giardia lamblia ATCC 50803.
The next test concerns the target HLA-B*15:01. The test is described as above.
A further test concerns the target HLA-B*15:17. The test is described as above.
For a further test, the target named is HLA-B*18:01. The description is as above.
For test [3], the target named is HLA-B*27:05. The test is described as above.
The next test has as its target HLA-B*40:01. The description is as above.
Another test addresses HLA-B*46:01. Described as above.
The next test addresses HLA-B*48:01. The description is as above.
The next test deals with HLA-B*57:01. The description is as above.
A further test concerns the target HLA-B*58:01. The description is as above.
In test [4] the target is HLA-B*07:02. The experiment in a line: IEDB peptide-MHC binding, purified MHC/competitive/fluorescence; filed as Kd, often an IC50 or EC50 that approximates it; ≥ and ≤ were set here for values at or beyond the usual limits of such assays. To be noted: source organism: Giardia lamblia ATCC 50803.
Another test addresses HLA-B*08:01. The description is as above.
Test [5] concerns the target HLA-B*27:05. Kind of test: IEDB peptide-MHC binding, purified MHC/competitive/fluorescence; ≥ and ≤ were set here for values at or beyond the usual limits of such assays.
A further test concerns the target HLA-A*26:01. The experiment in a line: IEDB peptide-MHC binding, purified MHC/direct/fluorescence; filed as Kd, often an IC50 or EC50 that approximates it; ≥ and ≤ were set here for values at or beyond the usual limits of such assays.
For test [6], the target named is HLA-B*07:02. The description is as above. The note with it: source organism: Bacillus anthracis.
The next test addresses HLA-B*08:02. Described as above.
Another test concerns the target HLA-B*15:02. The description is as above. The note with it: source organism: Bacillus anthracis str. A0389.
The next test deals with HLA-B*35:01. The description is as above. The note with it: source organism: Bacillus anthracis str. A0389.
Test [7] concerns the target HLA-B*39:01. The test is described as above. The note with it: source organism: Bacillus anthracis str. A0389.
Test [8] has as its target HLA-A*11:01. The experiment in a line: IEDB peptide-MHC binding, purified MHC/competitive/fluorescence; filed as Kd, often an IC50 or EC50 that approximates it; ≥ and ≤ were set here for values at or beyond the usual limits of such assays. The note with it: source organism: Bacillus anthracis str. A0389.
In another test the target is HLA-A*30:01. The test is described as above. The note with it: source organism: Bacillus anthracis str. A0389.
The target of test [9] is HLA-A*01:01. Kind of test: IEDB peptide-MHC binding, purified MHC/competitive/fluorescence; ≥ and ≤ were set here for values at or beyond the usual limits of such assays.
Another test deals with HLA-B*51:01. The experiment in a line: IEDB peptide-MHC binding, purified MHC/direct/fluorescence; filed as Kd, often an IC50 or EC50 that approximates it; ≥ and ≤ were set here for values at or beyond the usual limits of such assays. To be noted: source organism: Mycobacterium tuberculosis.
In a further test the target is HLA-B*15:09. Kind of test: IEDB peptide-MHC binding, purified MHC/competitive/fluorescence; filed as Kd, often an IC50 or EC50 that approximates it; ≥ and ≤ were set here for values at or beyond the usual limits of such assays. The note with it: source organism: Corynebacterium efficiens YS-314.
Test [10] has as its target HLA-B*39:01. The description is as above.
In a further test the target is HLA-B*38:01. The experiment in a line: IEDB peptide-MHC binding, purified MHC/direct/fluorescence; filed as Kd, often an IC50 or EC50 that approximates it; ≥ and ≤ were set here for values at or beyond the usual limits of such assays. To be noted: source organism: Mycobacterium tuberculosis str. Haarlem.
For the next test, the target named is HLA-C*07:02. The test is described as above. To be noted: source organism: Homo sapiens.
Test [11] concerns the target HLA-A*01:01. Kind of test: IEDB peptide-MHC binding, purified MHC/competitive/fluorescence; filed as Kd, often an IC50 or EC50 that approximates it; ≥ and ≤ were set here for values at or beyond the usual limits of such assays. To be noted: source organism: Homo sapiens.
The next test has as its target HLA-A*29:02. The test is described as above. The note with it: source organism: Homo sapiens.
The target of a further test is HLA-A*80:01. The test is described as above. To be noted: source organism: Homo sapiens.
[12] abbreviates: source organism: Giardia lamblia ATCC 50803.
[13] abbreviates: source organism: Bacillus anthracis.
Setting [14] is: source organism: Bacillus anthracis str. A0389.
[15] abbreviates: source organism: Mycobacterium tuberculosis.
Setting [16] is: source organism: Mycobacterium tuberculosis F11.
The mark [17] stands for this setting: source organism: Mycobacterium tuberculosis variant bovis BCG str. Pasteur 1173P2.

Regarding EIRHRSGIQ, the Kd was at least 20 µM with HLA-A*01:01 [1] (setting [12]); at least 20 µM with HLA-A*02:01 (setting [12]); 2 µM with HLA-A*03:01 (setting [12]); 6.39 µM with HLA-A*11:01 [2] (setting [12]); at least 20 µM with HLA-A*26:03 (setting [12]); at least 20 µM with HLA-A*31:01 (setting [12]). Besides, the Kd in the test with HLA-A*68:02 (setting [12]), with HLA-A*69:01 (setting [12]), in the test with HLA-B*08:03, in the test with HLA-B*15:01 (setting [12]), with HLA-B*15:17 (setting [12]) and with HLA-B*18:01 (setting [12]) was at least 20 µM each time. For the same sequence, the Kd in the test with HLA-B*27:05 [3] (setting [12]), with HLA-B*40:01 (setting [12]), in the test with HLA-B*46:01 (setting [12]), in the test with HLA-B*48:01 (setting [12]), with HLA-B*57:01 (setting [12]) and with HLA-B*58:01 (setting [12]) was at least 20 µM in each case. Also, the results for the Kd with HLA-B*07:02 [4] and with HLA-B*08:01 (setting [12]) were 0.41 µM and 9 µM, respectively.
GRATICGKY yielded an IC50 in the test with HLA-B*27:05 [5] (source organism: hepatitis C virus genotype 1a) of 0.122 µM. That is a sub-micromolar value.
Take KLYVNGKAY: the Kd in the test with HLA-A*01:01 [1] (setting [13]) is at least 20 µM; with HLA-A*02:01 (setting [13]) it was at least 20 µM; with HLA-A*03:01 (setting [13]), 0.032 µM; with HLA-A*26:01 (setting [14]), at least 20 µM; with HLA-A*26:03 (setting [14]), at least 20 µM; with HLA-A*31:01 (setting [13]) it was at least 20 µM. The Kd was at least 20 µM with HLA-A*68:02 (setting [13]); at least 20 µM with HLA-A*69:01 (setting [13]); at least 20 µM with HLA-B*07:02 [6]; at least 20 µM in the test with HLA-B*08:02 (setting [14]); 0.298 µM with HLA-B*15:01 (setting [13]); 0.117 µM in the test with HLA-B*15:02. In addition, the Kd in the test with HLA-B*15:17 (setting [13]) was 0.0024 µM; with HLA-B*27:05 [3] (setting [13]), at least 20 µM; with HLA-B*35:01 it was 1.63 µM; with HLA-B*39:01 [7] it was at least 20 µM; in the test with HLA-B*46:01 (setting [13]) it was 6 µM; with HLA-B*48:01 (setting [13]), at least 20 µM. Besides, the Kd in the test with HLA-B*57:01 (setting [13]) is 0.507 µM; with HLA-B*58:01 (setting [13]), at least 20 µM; with HLA-A*11:01 [8], at least 20 µM; in the test with HLA-A*30:01, 0.4 µM.
For the sequence LTDSLSSQM, in the test with HLA-A*01:01 [9] (source organism: Vaccinia virus Copenhagen), the IC50 was 2.54 µM.
Regarding MPRLSRNAA, the Kd with HLA-A*01:01 [1] (setting [15]), in the test with HLA-A*02:01 (setting [15]), with HLA-A*03:01 (setting [15]), with HLA-A*11:01 [2] (setting [15]), in the test with HLA-A*26:01 (setting [16]) and in the test with HLA-A*31:01 (setting [15]) was at least 20 µM throughout. For the same sequence, the Kd with HLA-A*69:01 (setting [15]) was at least 20 µM; in the test with HLA-B*08:02 (setting [16]), at least 20 µM; with HLA-B*15:01 (setting [15]), at least 20 µM; with HLA-B*15:17 (setting [15]), at least 20 µM; with HLA-B*18:01 (setting [15]), 8.28 µM; with HLA-B*27:05 [3] (setting [15]) it was at least 20 µM. The Kd with HLA-B*40:01 (setting [15]) was at least 20 µM; in the test with HLA-B*46:01 (setting [15]), at least 20 µM; with HLA-B*48:01 (setting [15]), at least 20 µM; with HLA-B*51:01 it was 0.655 µM; with HLA-B*57:01 (setting [15]), at least 20 µM; with HLA-B*58:01 (setting [15]) it was at least 20 µM. For the same sequence, the Kd with HLA-B*15:09 was at least 20 µM; with HLA-B*39:01 [10] (source organism: Corynebacterium efficiens YS-314), 0.25 µM.
For QSEHSFEEM, the IC50 with HLA-A*01:01 [9] (source organism: Zaire ebolavirus) came out at 39.6 µM. This counts as double-digit micromolar.
For RLFPGLAIK, the IC50 with HLA-B*27:05 [5] (source organism: Homo sapiens) stood at 0.146 µM.
RPPMVTSGL: the Kd with HLA-A*01:01 [1] (setting [15]), in the test with HLA-A*02:01 (setting [15]), with HLA-A*03:01 (setting [15]), with HLA-A*11:01 [2] (setting [15]), in the test with HLA-A*31:01 (setting [15]) and in the test with HLA-A*69:01 (setting [15]) was at least 20 µM in each case. Besides, the Kd in the test with HLA-B*15:01 (setting [15]), with HLA-B*15:17 (setting [15]), with HLA-B*18:01 (setting [15]), with HLA-B*27:05 [3] (setting [15]), with HLA-B*38:01 and with HLA-B*40:01 (setting [15]) was at least 20 µM each time. Moreover, the Kd in the test with HLA-B*46:01 (setting [15]), with HLA-B*48:01 (setting [15]), with HLA-B*51:01, with HLA-B*57:01 (setting [15]), with HLA-B*58:01 (setting [15]) and with HLA-B*08:01 (setting [17]) was at least 20 µM in each case. The same sequence registered a Kd with HLA-B*39:01 [10] (setting [17]) of at least 20 µM.
Consider YYSNKAYQY, for which the Kd with HLA-C*07:02 was 0.15 µM; with HLA-A*01:01 [11] it was at least 20 µM; with HLA-A*29:02, at most 0.0001 µM; with HLA-A*80:01, 0.373 µM.
